Assay [1] has as its target Mcl-1 in human cancer cell lines (HeLa, colon cancer lines) (human, UniProt Q07820 1-350). Briefly: cell-based or functional assay.
In assay [2] the target is T1, human Mcl-1 a.a. 172-327 with C-terminal avi-6his tag (human).
T1 chain: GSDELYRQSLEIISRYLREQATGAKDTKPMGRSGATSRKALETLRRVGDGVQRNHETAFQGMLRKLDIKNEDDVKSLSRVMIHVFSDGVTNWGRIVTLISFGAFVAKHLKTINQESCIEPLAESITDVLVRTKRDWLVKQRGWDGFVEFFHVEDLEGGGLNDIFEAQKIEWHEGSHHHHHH
Briefly: ratio of the KD of the next tightest BCL2 protein to the KD of the target, BLI.

Assay [3] concerns the target T2, human Bcl-2 a.a. 1-207 with C-terminal avi-6his tag (human, UniProt P10415 2-207). Put plainly: BLI, biotinylated target on streptavidin sensor, range of analyte concentrations.
Target sequence in this assay (P10415 other isoform, or with tags, fused parts or gaps limits assumed): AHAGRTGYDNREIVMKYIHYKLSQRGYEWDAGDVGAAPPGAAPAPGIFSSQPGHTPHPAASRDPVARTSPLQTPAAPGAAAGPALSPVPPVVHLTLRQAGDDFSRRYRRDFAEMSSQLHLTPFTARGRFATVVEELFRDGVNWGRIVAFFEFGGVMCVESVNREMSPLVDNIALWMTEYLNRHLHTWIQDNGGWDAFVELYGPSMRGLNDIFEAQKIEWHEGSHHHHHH
Assay [4] has as its target T3, human Bcl-w a.a. 1-182 with C-terminal avi-6his tag (human, UniProt Q92843 1-182).
T3 construct: range 1-182; also called BCL2L2
T3 sequence: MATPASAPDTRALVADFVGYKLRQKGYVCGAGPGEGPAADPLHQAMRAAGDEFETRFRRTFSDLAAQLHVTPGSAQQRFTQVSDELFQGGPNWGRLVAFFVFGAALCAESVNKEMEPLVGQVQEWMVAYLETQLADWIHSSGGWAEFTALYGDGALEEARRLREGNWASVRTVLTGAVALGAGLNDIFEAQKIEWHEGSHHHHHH
The assay is described as above.

For assay [5], the target named is T1, human Mcl-1 a.a. 172-327 with …. Described as above.
Assay [6] has as its target T4, human Bfl-1 a.a. 1-153 (C4S) with C-terminal avi-6his tag (human).
T4 construct: also called A1/Bfl-1
T4 chain: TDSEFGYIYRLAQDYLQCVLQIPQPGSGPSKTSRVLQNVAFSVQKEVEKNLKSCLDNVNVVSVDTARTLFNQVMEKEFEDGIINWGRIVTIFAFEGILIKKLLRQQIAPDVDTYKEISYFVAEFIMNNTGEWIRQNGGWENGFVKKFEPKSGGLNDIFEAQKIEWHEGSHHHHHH
Described as above.

Assay [7] deals with T5, human Bcl-XL a.a. 1-205 with C-terminal avi-6his tag (human, UniProt Q07817 2-206).
T5 construct: also called BCL2L1
The assay is described as above.
Target sequence in this assay (Q07817 other isoform, or with tags, fused parts or gaps limits assumed): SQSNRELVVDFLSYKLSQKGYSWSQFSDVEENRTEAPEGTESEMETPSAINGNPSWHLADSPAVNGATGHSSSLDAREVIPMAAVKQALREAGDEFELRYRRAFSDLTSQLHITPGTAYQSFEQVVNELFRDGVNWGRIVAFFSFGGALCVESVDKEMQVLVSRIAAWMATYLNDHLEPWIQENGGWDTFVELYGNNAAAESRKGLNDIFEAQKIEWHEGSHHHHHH

Assay [8] addresses T6, human Bcl-B a.a. 11-175 with C-terminal avi-6his tag (human).
T6 construct: also called BCL2L10
T6 chain: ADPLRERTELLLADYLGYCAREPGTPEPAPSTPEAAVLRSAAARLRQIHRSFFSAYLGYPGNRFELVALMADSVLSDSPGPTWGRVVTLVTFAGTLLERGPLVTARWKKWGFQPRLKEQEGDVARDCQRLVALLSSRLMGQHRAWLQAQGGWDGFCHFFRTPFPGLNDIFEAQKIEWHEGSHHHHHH
The description is as above.

For assay [9], the target named is T1, human Mcl-1 a.a. 172-327 with …. Briefly: BLI.
The target of assay [10] is T7, Epstein-Barr virus BHRF1 a.a. 1-161 with C-terminal avi-6his tag (Epstein-Barr virus).
T7 construct: also called EBV BHRF1; BHRF1-biotin
T7 chain: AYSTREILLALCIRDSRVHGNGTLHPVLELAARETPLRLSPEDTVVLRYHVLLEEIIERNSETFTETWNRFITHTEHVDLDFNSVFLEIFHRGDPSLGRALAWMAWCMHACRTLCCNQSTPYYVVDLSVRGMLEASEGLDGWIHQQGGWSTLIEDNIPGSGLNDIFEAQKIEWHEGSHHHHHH
Put plainly: BLI, biotinylated target on streptavidin sensor.

In assay [11] the target is T2, human Bcl-2 a.a. 1-207 with C-terminal …. Put plainly: BLI, biotinylated target on streptavidin sensor.
In assay [12] the target is T3, human Bcl-w a.a. 1-182 with C-terminal …. Briefly: BLI, biotinylated target on streptavidin sensor.
Assay [13] deals with T1, human Mcl-1 a.a. 172-327 with …. Briefly: BLI, biotinylated target on streptavidin sensor.
In assay [14] the target is T4, human Bfl-1 a.a. 1-153 (C4S) with …. Briefly: BLI, biotinylated target on streptavidin sensor.
In assay [15] the target is T5, human Bcl-XL a.a. 1-205 with C-terminal …. Briefly: BLI, biotinylated target on streptavidin sensor.
In assay [16] the target is T6, human Bcl-B a.a. 11-175 with C-terminal …. Briefly: BLI, biotinylated target on streptavidin sensor.
In assay [17] the target is T7, Epstein-Barr virus BHRF1 a.a. 1-161 …. Briefly: yeast surface display titration (apparent KD).
Assay [18] deals with T2, human Bcl-2 a.a. 1-207 with C-terminal …. Briefly: yeast surface display titration (apparent KD).
For assay [19], the target named is T3, human Bcl-w a.a. 1-182 with C-terminal …. Put plainly: yeast surface display titration (apparent KD).
The target of assay [20] is T1, human Mcl-1 a.a. 172-327 with …. Put plainly: yeast surface display titration (apparent KD).
In assay [21] the target is T4, human Bfl-1 a.a. 1-153 (C4S) with …. Put plainly: yeast surface display titration (apparent KD).
The target of assay [22] is T5, human Bcl-XL a.a. 1-205 with C-terminal …. Put plainly: yeast surface display titration (apparent KD).
Assay [23] addresses T2, human Bcl-2 a.a. 1-207 with C-terminal …. Put plainly: BLI at a single analyte concentration (50 nM, 600 s association, then buffer); biotinylated BCL2 protein on a streptavidin sensor.
For assay [24], the target named is T3, human Bcl-w a.a. 1-182 with C-terminal …. The description is as above.
Assay [25] deals with T1, human Mcl-1 a.a. 172-327 with …. The description is as above.
For assay [26], the target named is T4, human Bfl-1 a.a. 1-153 (C4S) with …. Described as above.
The target in assay [27] is T5, human Bcl-XL a.a. 1-205 with C-terminal …. Described as above.
In assay [28] the target is T6, human Bcl-B a.a. 11-175 with C-terminal …. Described as above.

Mcl-1 in human cancer cell lines (HeLa, colon cancer lines), sequence (Q07820 whole entry): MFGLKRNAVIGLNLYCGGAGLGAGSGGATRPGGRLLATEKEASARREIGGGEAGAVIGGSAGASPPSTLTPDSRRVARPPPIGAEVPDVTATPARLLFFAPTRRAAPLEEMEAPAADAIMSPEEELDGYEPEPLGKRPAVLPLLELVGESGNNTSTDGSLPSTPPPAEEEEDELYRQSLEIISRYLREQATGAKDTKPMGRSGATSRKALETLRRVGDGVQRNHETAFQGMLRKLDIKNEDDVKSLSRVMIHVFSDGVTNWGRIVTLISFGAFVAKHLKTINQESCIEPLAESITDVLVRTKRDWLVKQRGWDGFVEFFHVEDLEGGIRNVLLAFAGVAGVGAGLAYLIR

B1: MINDI (Mcl-1-inhibiting design acting intracellularly) (designed binder)
chain: ADPKKVLDKAKDQAENRVRELKQVLEELYKEARKLDLTQEMRKKLIERYAAAIIRAIGDINNAIYQAKQEAEKLKKAGLVNSQQLDELLRRLDELQKEASRKANEYGREFELKLEY
notes: also called M-CDP04; αMCL1
For the molecule B1, the “decrease of the EC50 of A-1331852 in colon cancer lines on expression of αMCL1” value in assay [1] is 4.6 fold. In assay [2], the Specificity came out at 93000 fold. Further, the Kd in [3] is 14.2 µM; in [4], 200 µM; in assay [5], 0.00015 µM; in assay [6], 30 µM; in assay [7] it was 400 µM; in assay [8], 40 µM.

B2: BINDI N62S (designed binder)
chain: ADPKKVLDKAKDQAENRVRELKQKLEELYKEARKLDLTQEMRRKLELRYIAAMLMAIGDIYSAIRQAKQEADKLKKAGLVNSQQLDELKRRLEELKEEASRKARDYGREFQLKLEY
Consider B2, for which the “fold decrease of affinity relative to BINDI” value in [9] came to 6 fold. Also, the Kd was 0.00016 µM in [10]; 30 µM in assay [11]; 4.6 µM in [12]; 0.23 µM in [13]; 4 µM in assay [14]; 8 µM in assay [15]. The same molecule registered a Kd in assay [16] of 50 µM.

B3: BbpD04.2 (designed binder)
chain: ADWKKVLDKAKDIAENRVRELKQKLEEFYKEAMKLDLTQEMRRKLMLRWIAAMLMAIGDIFNAIRQAKQEADKLKKAGLVNSQQLDELKRRLEELKEEASRKCRDYGREFQLKLEY
With B3, the Kd in [17] was 0.0006 µM; in [18], 0.033 µM; in assay [19] it was 0.04 µM; in assay [20] it was 0.026 µM; in assay [21], 0.07 µM; in [22] it was 0.031 µM.

B4: M-CDP03 (designed binder)
chain: ADPKKVLDKAKDQAENRVRELKQDLERLYKEARKLDLTQEMRRKLQEKAAAAMIRAIGDINNAIYQALQEADKLKKAGLVNSQQLDELKRRLEELQKEASRKAQAYGEEFMLKLEY
Take B4: the binding result in [23] is recorded as “no binding (tested: 50 nM)”; in [24], “no binding (tested: 50 nM)”; in assay [25] it was “binds”; in assay [26], “no binding (tested: 50 nM)”; in assay [27], “no binding (tested: 50 nM)”; in assay [28], “no binding (tested: 50 nM)”.

Values taken from US20160376333A1 (University of Washington, published 2016).
